Tests used:
[1] = test system: S1-KRAB ATF (synthetic construct); test: cell_activity; conditions: luciferase reporter with target site in HEK293T, p<0.05
[2] = test system: S1 zinc finger array (six-finger ATF) (synthetic construct); test: EMSA; conditions: ZBA (10 mM Tris pH 8.5, 90 mM KCl, 1 mM MgCl2, 100 uM ZnCl2), 0.05% NP-40, 0.1 mg/mL BSA, glycerol, room temperature 1.5 h; apparent KD, average of at least …
[3] = test system: SR71-KRAB ATF (synthetic construct); test: cell_activity; conditions: luciferase reporter with target site in HEK293T, p<0.05

How did the activity (fold repression) [1] turn out when “CATGCGTAGGGAGCCGCG (double strand) [S1 target site (18 bp; Snurf promoter)]” was run?
Its activity (fold repression) is over 5.

With “CCTCTTCGCTATTACGCCAGCCATGCGTAGGGAGCCGCGGAACGTTCGATCGTACTCGAGTCAGGGTG (double strand) [S1 EMSA target]” as the sequence, how does the Kd [2] read?
The Kd was 3 nM.

“GCAGGACCTGCTGCACTG (double strand) [SR71 target site (18 bp)]” was tested. Which activity (fold repression) [3] did it give?
Its activity (fold repression) is over 5.

From US20180346531
